Assay results as given in article doi:10.1101/2022.08.28.505448 (bioRxiv, 2022).

T1: MITF_(81-204) (UniProt O75030-9 81-204)
T1 sequence (looked up): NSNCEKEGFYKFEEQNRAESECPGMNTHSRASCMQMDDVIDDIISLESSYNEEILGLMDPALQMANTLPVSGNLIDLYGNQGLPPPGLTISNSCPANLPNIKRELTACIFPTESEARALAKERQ

T2: GB1-TAZ2 (human, UniProt Q09472 1723-1812, C1738A | C1746A | C1789A | C1790A)
T2 sequence (looked up): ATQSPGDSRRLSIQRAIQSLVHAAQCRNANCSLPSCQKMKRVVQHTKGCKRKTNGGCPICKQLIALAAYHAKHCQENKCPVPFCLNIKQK

T3: GB1-MITF_(81-204) Δ123-127 (UniProt O75030-9 81-204, Δ123-127)
T3 sequence (looked up): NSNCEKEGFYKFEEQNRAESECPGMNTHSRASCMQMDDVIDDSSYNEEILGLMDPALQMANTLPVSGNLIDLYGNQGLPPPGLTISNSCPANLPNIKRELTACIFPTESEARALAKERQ

B1: TAZ1 (residues 346-440 of CBP) (domain or fragment)
chain: not shown
B2: TAZ2 (residues 1723-1812 of p300 with four stabilizing mutations) (domain or fragment, human, UniProt Q09472 1723-1812, looked up)
chain: T2 sequence (looked up)

Target: T1, MITF_(81-204)
Assay: ITC

| Kd | Binder |
| --- | --- |
| 6.7 ± 0.5 µM | B1 |
| 1.24 ± 0.23 µM | B2 |

Target: T2, GB1-TAZ2
Assay: peptide or protein array

| binding result | Binder |
| --- | --- |
| binds | DDAIDDIISLESSYNEEIL (peptide, UniProt O75030-9 117-135, looked up) [MITF_(117-135) peptide, Val119 mutated to alanine] |
| binds | DAVIDDIISLESSYNEEIL (peptide, UniProt O75030-9 117-135, looked up) [MITF_(117-135) peptide, Asp118 mutated to alanine] |
| binds | DDVIDDIIALESSYNEEIL (peptide, UniProt O75030-9 117-135, looked up) [MITF_(117-135) peptide, Ser125 mutated to alanine] |
| binds | ADVIDDIISLESSYNEEIL (peptide, UniProt O75030-9 117-135, looked up) [MITF_(117-135) peptide, Asp117 mutated to alanine] |
| binds | DDVIDDIISAESSYNEEIL (peptide, UniProt O75030-9 117-135, looked up) [MITF_(117-135) peptide, Leu126 mutated to alanine] |
| binds | DDVIDDAISLESSYNEEIL (peptide, UniProt O75030-9 117-135, looked up) [MITF_(117-135) peptide, Ile123 mutated to alanine] |
| binds | DDVIDDIASLESSYNEEIL (peptide, UniProt O75030-9 117-135, looked up) [MITF_(117-135) peptide, Ile124 mutated to alanine] |
| binds | DDVIDDIISLASSYNEEIL (peptide, UniProt O75030-9 117-135, looked up) [MITF_(117-135) peptide, Glu127 mutated to alanine] |
| binds | DDVIDAIISLESSYNEEIL (peptide, UniProt O75030-9 117-135, looked up) [MITF_(117-135) peptide, Asp122 mutated to alanine] |
| binds | DDVIADIISLESSYNEEIL (peptide, UniProt O75030-9 117-135, looked up) [MITF_(117-135) peptide, Asp121 mutated to alanine] |
| binds | DDVADDIISLESSYNEEIL (peptide, UniProt O75030-9 117-135, looked up) [MITF_(117-135) peptide, Ile120 mutated to alanine] |

Target: T3, GB1-MITF_(81-204) Δ123-127
Assay: pull-down

| binding result | Binder |
| --- | --- |
| binds | B2 |
